In the assay the target is GFP1-10 tagged with MCP, with nuclear localization sequences. Nature of the assay: P3 editing (protein-protein proximity joins crRNA-MS2 and BoxB-petracrRNA; prime editing read by amplicon sequencing); HEK293T cells; 12 designs of crRNA-MS2/BoxB-petracrRNA that vary the upper 4 bp of the Cas9-binding region of the repeat:anti-repeat duplex; tagged split-GFP against standard untagged GFP as background; normalized to the eCTT control.

Among the data in PMC11820115 are normalized editing efficiency (GAUA:UAUC design) values, retold here.

For “GFP11 tagged with LambdaN, with nuclear localization sequences (peptide)”, the normalized editing efficiency (GAUA:UAUC design) amounted to 3.8%.
